Measured values taken from patent US20230111102A1 (KAO, published 2023).

Target: T1, HEWL (lysozyme, derived from egg albumen, FUJIFILM Wako Pure Chemical Corporation) (UniProt P00698 19-147)
T1 construct: Immobilised on a CM5 sensor chip by amine coupling (target 150 RU); Species is only implied by 'derived from egg albumen' and the abbreviation HEWL; also called antigen
Assay: SPR (Biacore T200), HEWL amine-coupled to CM5 chip, 1ZVH at 8.6-700 nM as analyte, 1:1 binding model
Protocol: The antigen-binding activity of the 1ZVH (SEQ ID NO: 38) produced by Dpr9ΔsigF was analyzed by intermolecular interaction measurement using Biacore T200 (GE Healthcare). The sensor chip used was Series S Sensor Chip CM5, and the running buffer used was HBS-EP+. HEWL (lysozyme, derived from egg albumen, FUJIFILM Wako Pure Chemical Corporation) was adjusted to 0.7 g/L with 25 mM Na phosphate pH 6.5 buffer to prepare an antigen solution. The antigen solution diluted 100-fold with an acetic acid aqueous solution (pH 4.0, 4.5, 5.0, or 5.5) to 7 μg/mL was used as substrates. As samples, 1ZVH diluted with the running buffer to 8.6 nM, 26 nM, 78 nM, 230 nM, or 700 nM was used. The following items were set or performed on the control software attached to Biacore T200 using the substrates and the samples, and the binding between the HEWL and the 1ZVH was monitored. Immobilisation pH scouting was performed to investigate the optimum pH for ill- mobilization to a sensor chip. The optimum pH condition was judged to be pH 5.5. The target was set to 150 RU with Aim for immobilized level, and lysozyme was immobilized to Flow path 2 by an amine coupling method. In Flow path 1, Blank Immobilization was performed. The binding between a substrate and a sample was monitored in Flow path 2-1. […] The kinetics were analyzed using the resulting sensor gram. […]

T1 sequence (P00698 19-147 limits assumed): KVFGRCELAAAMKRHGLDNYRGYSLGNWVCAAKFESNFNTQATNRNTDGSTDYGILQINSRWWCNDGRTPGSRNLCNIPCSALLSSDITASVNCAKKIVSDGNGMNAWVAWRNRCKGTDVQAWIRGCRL

- binding result: binds
B1: 1ZVH (VHH, SEQ ID NO: 38) produced by Bacillus subtilis Dpr9ΔsigF (VHH)
VHH: QVQLVESGGGLVQPGGSLRLSCAASGFTFSNDAMTWVRQAPGKALEWVSSITLLGGGIPYYSDTVKGRFTISRDNTKNMLYLQMNSLKPEDTAVYYCAKGFKSDYPRGQGTQVTVSS
notes: Secreted by Dpr9ΔsigF and purified on Ni-NTA agarose; also called the VHH (1ZVH); purified VHH
